Measurements from patent US20250368754A1 (KANAPH THERAPEUTICS, published 2025).

B1: T3.01 (anti-hu FAP/hu scLIGHT3, hu IgG1 DANG) (bispecific antibody)
heavy: QVQLVQSGAEVKKPGASVKVSCKTSRYTFTEYTIHWVRQAPGQRLEWIGGINPNNGIPNYNQKFKGRVTITVDTSASTAYMELSSLRSEDTAVYYCARRRIAYGYDEGHAMDYWGQGTLVTVSSASTKGPSVFPLAPSSKSTSGGTAALGCLVKDYFPEPVTVSWNSGALTSGVHTFPAVLQSSGLYSLSSVVTVPSSSLGTQTYICNVNHKPSNTKVDKKVEPKSCDKTHTCPPCPAPELLGGPSVFLFPPKPKDTLMISRTPEVTCVVVAVSHEDPEVKFNWYVDGVEVHNAKTKPREEQYGSTYRVVSVLTVLHQDWLNGKEYKCKVSNKALPAPIEKTISKAKGQPREPQVYTLPPSRDELTKNQVSLWCLVKGFYPSDIAVEWESNGQPENNYKTTPPVLDSDGSFFLYSKLTVDKSRWQQGNVFSCSVMHEALHNHYTQKSLSLSPGK
light: not shown
chain: not shown
notes: Knob-into-hole heterodimer: one anti-FAP Fab arm and one single-chain human LIGHT (91-240) homotrimer arm
B2: T3.14 (anti-hu FAP/hu scLIGHT-LTb2, hu IgG1 DANG) (bispecific antibody)
heavy: QVQLVQSGAEVKKPGASVKVSCKTSRYTFTEYTIHWVRQAPGQRLEWIGGINPNNGIPNYNQKFKGRVTITVDTSASTAYMELSSLRSEDTAVYYCARRRIAYGYDEGHAMDYWGQGTLVTVSSASTKGPSVFPLAPSSKSTSGGTAALGCLVKDYFPEPVTVSWNSGALTSGVHTFPAVLQSSGLYSLSSVVTVPSSSLGTQTYICNVNHKPSNTKVDKKVEPKSCDKTHTCPPCPAPELLGGPSVFLFPPKPKDTLMISRTPEVTCVVVAVSHEDPEVKFNWYVDGVEVHNAKTKPREEQYGSTYRVVSVLTVLHQDWLNGKEYKCKVSNKALPAPIEKTISKAKGQPREPQVYTLPPSRDELTKNQVSLWCLVKGFYPSDIAVEWESNGQPENNYKTTPPVLDSDGSFFLYSKLTVDKSRWQQGNVFSCSVMHEALHNHYTQKSLSLSPGK
light: not shown
chain: not shown
notes: Knob-into-hole; single-chain heterotrimer of one human LIGHT and two human lymphotoxin beta (87-243)

Experiments:
[1] = molecular target: T1, human FAP on HEK293-hFAP cells (human, UniProt Q12884 1-760); assay: flow cytometry on HEK293-hFAP cells, 1 ug protein per 1x10^5 cells, anti-human IgG detection (axis TMEkine-PE)
T1 construct: whole, on cells; also called human FAP-expressing cell line
T1 sequence (looked up): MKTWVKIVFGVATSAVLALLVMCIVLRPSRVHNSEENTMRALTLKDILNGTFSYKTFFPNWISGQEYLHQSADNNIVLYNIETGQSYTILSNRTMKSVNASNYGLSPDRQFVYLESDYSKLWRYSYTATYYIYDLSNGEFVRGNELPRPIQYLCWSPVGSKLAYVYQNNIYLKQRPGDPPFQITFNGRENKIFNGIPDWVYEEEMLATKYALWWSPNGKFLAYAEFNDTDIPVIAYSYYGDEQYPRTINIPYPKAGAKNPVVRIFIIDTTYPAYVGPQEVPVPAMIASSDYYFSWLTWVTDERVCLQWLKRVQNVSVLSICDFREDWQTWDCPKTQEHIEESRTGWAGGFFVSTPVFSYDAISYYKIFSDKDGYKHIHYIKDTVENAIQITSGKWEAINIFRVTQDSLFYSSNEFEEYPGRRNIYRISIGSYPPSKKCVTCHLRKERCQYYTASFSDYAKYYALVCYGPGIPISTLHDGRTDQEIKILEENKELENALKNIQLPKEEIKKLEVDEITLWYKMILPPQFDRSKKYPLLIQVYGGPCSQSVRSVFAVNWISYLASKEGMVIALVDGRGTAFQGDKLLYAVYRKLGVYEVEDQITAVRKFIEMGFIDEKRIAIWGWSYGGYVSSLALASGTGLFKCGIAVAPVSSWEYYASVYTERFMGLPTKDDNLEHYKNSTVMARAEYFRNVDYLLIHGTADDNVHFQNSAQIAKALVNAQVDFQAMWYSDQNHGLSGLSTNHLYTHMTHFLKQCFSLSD
Method: Specifically, the cell line was prepared by suspending in a FACS buffer solution at 1×10⁵ cells/100 μL, and treated with 1 μg each of T3.10, T3.01, T3.05, T3.06, T3.14, and T3.18. The cells were washed twice with a FACS buffer solution. The cells were stained with an anti-human IgG antibody (Biolegend). The negative control sample was stained only with an anti-human IgG antibody (Biolegend). The expression ratio of the stained cells was measured using BD LSR and analyzed using FlowJo software.

human LTβR on A375 cells = human LTβR on A375 cells (human, UniProt P36941 31-435); assay: cell-based or functional assay
human LTβR on A375 cells, sequence (P36941 31-435): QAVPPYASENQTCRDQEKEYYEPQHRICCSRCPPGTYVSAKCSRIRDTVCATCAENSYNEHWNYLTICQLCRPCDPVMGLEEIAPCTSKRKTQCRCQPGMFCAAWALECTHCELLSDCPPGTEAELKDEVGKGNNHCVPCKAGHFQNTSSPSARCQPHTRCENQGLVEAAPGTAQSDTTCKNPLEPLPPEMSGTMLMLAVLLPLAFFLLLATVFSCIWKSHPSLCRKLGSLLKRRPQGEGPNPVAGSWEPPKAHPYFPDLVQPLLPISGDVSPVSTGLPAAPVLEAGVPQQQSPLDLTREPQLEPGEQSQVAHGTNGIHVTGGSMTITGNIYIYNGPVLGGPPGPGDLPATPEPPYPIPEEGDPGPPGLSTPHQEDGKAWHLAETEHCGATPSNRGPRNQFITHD

human DcR3 = molecular target: T2, human DcR3 (human, UniProt O95407 30-300); assay: SPR, human DcR3 immobilised on CM5, fusion protein as analyte, 1:1 binding model
T2 construct: also called LIGHT receptor DcR3
T2 sequence (looked up): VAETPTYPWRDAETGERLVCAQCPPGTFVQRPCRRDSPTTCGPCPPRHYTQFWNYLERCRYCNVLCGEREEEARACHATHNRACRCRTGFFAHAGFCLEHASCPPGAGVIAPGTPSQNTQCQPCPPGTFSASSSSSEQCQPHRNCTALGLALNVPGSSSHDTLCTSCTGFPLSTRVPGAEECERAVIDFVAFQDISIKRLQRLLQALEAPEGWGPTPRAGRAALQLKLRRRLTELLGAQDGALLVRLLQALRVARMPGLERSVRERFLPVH
Method: Specifically, the surface of the CM5 chip was activated with a 1:1 mixture of […], and 5 to 6 μg/mL of human DcR3 was immobilized for 60 seconds at a rate of 10 μL/min. The remaining active ester groups were blocked with 1 M ethanolamine. T3.01, T3.07, T3.09, T3.14, and T3.18 were each diluted to 50 nM or 200 nM in 1×HBS-EP+buffer solution and diluted by serial dilution. The diluted fusion proteins were reacted at a rate of 30 μL/min. The association and dissociation times were 180 seconds and 400 seconds, respectively. After the dissociation step, stabilization was performed for 60 seconds, and then the regeneration step was performed for 30 seconds with a 10 mM glycine pH 1.5 solution at a rate of 30 μL/min.

Binder | percent of cells in the positive gate [1] [%] | IL-8 secretion of A375 cells, EC50 (FIG. 15a) (human LTβR on A375 cells) [nM] | IL-8 secretion of A375 cells, EC50 (FIG. 15b) (human LTβR on A375 cells) [nM] | Kd (human DcR3) [nM] | koff (human DcR3) [s⁻¹] | kon (human DcR3) [M⁻¹ s⁻¹]
B1 | 99.5 | 0.0368 | 0.0469 | 0.357 | 0.000236 | 662000
B2 | 99.9 | 0.0558 | – | 9.72 | 0.00198 | 204000
